From patent publication US7700101B2, “Reagents and method for modulating Dkk-mediated interactions” (Wyeth, priority 2001, dated 2010)
“Also recorded” adds a separate entry of the source.

Tests used:
HBM [1] = target: T1, HBM (Homo sapiens, UniProt O75197, G171V); test: Cell-based TCF reporter high-throughput assay, HBM cDNA; conditions: U2OS cells, Wnt1 or Wnt3a/Wnt1 co-transfected, FIG. 20
T1 construct: Full length Zmax/LRP5 and HBM ORF cDNA; expressed in transfected cells; host or cells: HOB-03-CE6 osteoblastic cells; U2OS osteosarcoma cells; HEK293
Source text: To develop a high throughput assay, the TCF-luciferase assay described in Example 7 was modified utilizing low level expression of endogenous LRP5/6 in U2OS and HEK293 cells. However, HOB-03-CE6 cells and any other cells which show a differential response to Dkk depending on whether LRP5, LRP6 or HBM are expressed. Using U2OS (human osteosarcoma) and HEK293 (ATCC) cells, the TCF-luciferase and tk-Renilla reporter element constructs were co-transfected along with Wnt3a/1 and Dkk. Wnt3a alone, by using endogenous LRP5/6, was able to stimulate TCF reporter gene activation. When Dkk, is co-transfected with Wnt3a/Wnt 1 and reporters (TCF-luci and tk-Renilla), DEkk represses reporter element activity. In addition, the TCF-luci signal is activated by Wnt3a/Wnt1 can be repressed by the addition of Dkk-enriched conditioned media to the cells containing Wnt3a/Wnt1 and reporters.
The Dkk-mediated repression of the reporter is dependent upon the concentration of transfected Dkk cDNA or on the amount of Dkk-conditioned media added. In addition, the Dkk-mediated reporter suppression can be altered by the co-transfection of LRP5, LRP6, and HBM cDNAs in the U2OS or HEK293 cells. In general, U2OS cells show greater sensitivity to Dkk-mediated reporter suppression than that in HEK-293 cells. […]

HBM [2] = target: T1, HBM; test: TCF-luciferase assay in HOB-03-CE6 cells, HBM; assay type: cell-based; conditions: Wnt1, FIG. 14
Protocol: HOB-03-CE6 osteoblastic cells developed by Wyeth Ayerst (Philadelphia, Pa.) were seeded into 24-well plates at 150,000 cells per well in 1 ml of the growth media (D-MEM/F12 phenol red-free) containing 10% (v/v) heat-inactivated FBS, 1×penicillin streptomycin, and 1X Glutamax-1, and incubated overnight at 34° C. The following day, the cells were transfected using Lipofectamine 2000® (as described by the manufacturer, Invitrogen) in OptiMEM (Invitrogen) with 0.35 μg/well of LRP5, HBM, or control plasmid DNA (empty vector pcDNA3.1) and either Wnt1 or Wnt3 a plasmid DNA. […] All wells were transfected with 0.025 μg/well of CMV beta-galactosidase plasmid DNA and 0.35 μg/well 16X TCF(ASyluciferase reporter DNA (developed by Ramesh Bhat, Wyeth-Ayerst (Philadelphia, Pa.)). After 4 hours of incubation, the cells were rinsed and 1 ml of fresh growth media was added to each well. The cells were cultured overnight at 34° C., followed by a wash and a change of media. Cells were cultured for an additional 18-24 hours at 37° C. Cells were then lysed with 50 μl/well of 1X lysis buffer. The extracts were assayed for beta-galactosidase activity (Galacto Reaction Buffer Diluent & Light Emission Accelerator, Tropix) using 5 μl extract+50 μl beta-galactosidase diluent and luciferase activity (Luciferase Assay Reagent, Promega) using 20 μl extract.

T1 sequence (O75197 32-1615 G171V): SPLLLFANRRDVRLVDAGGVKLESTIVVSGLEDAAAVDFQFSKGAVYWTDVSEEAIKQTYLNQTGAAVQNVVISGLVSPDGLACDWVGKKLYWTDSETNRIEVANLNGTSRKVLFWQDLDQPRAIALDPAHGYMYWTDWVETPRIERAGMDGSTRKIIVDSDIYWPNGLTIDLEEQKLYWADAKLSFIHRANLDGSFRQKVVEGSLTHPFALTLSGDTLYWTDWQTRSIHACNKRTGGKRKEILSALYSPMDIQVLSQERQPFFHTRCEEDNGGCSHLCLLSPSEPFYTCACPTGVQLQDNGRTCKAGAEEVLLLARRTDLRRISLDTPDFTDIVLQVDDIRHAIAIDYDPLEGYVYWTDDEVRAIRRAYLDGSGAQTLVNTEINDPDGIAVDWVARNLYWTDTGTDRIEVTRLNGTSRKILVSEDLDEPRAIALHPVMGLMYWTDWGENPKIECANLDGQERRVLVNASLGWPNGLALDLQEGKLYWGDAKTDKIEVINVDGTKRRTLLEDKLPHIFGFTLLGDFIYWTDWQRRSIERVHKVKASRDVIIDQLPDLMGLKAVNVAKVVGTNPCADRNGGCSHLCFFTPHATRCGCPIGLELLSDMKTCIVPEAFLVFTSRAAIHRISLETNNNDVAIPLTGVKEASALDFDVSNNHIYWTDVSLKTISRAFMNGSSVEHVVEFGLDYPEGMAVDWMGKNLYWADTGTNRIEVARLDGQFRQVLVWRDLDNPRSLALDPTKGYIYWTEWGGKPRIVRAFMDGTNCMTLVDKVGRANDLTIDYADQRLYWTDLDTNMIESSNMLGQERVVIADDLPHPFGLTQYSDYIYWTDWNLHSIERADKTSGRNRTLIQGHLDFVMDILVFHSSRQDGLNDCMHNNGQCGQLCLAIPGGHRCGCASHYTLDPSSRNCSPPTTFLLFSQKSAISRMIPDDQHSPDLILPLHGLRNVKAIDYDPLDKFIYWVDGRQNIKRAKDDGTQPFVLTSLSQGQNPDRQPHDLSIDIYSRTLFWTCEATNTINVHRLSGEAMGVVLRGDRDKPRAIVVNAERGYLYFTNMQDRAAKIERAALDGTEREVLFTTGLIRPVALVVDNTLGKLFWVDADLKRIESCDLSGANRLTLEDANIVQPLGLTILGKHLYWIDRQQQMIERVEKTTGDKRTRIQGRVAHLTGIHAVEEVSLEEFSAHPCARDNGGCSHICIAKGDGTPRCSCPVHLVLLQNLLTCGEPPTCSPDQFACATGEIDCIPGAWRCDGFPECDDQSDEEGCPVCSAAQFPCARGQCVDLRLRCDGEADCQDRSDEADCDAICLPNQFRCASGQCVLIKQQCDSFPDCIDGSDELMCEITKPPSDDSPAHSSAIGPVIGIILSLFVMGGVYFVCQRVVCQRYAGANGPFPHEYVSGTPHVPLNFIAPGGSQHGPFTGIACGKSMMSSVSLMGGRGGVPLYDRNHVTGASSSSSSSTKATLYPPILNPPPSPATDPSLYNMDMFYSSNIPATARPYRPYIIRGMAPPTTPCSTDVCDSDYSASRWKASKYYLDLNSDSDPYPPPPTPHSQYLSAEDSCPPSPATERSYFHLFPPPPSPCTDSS

Dkk-1: Dickkopf-1 protein, antagonist of the Wnt pathway; expressed from human cDNA (RNA or plasmid)
Dkk-mediated repression of HBM signaling (TCF reporter) (HBM [1]): not efficiently inhibited; also recorded: little or no effect | Dkk-mediated repression of HBM signaling (TCF reporter) (HBM [1]; listed as Dkk1): least | HBM/Wnt1 mediated TCF-luciferase activity (HBM [2]): no effect; also recorded: had no effect on LRP5 or HBM mediated TCF-luciferase activity
